± gives the uncertainty stated by the source.
Assay: self-splicing fitness, log relative to wild type (ln ratio); higher = more splicing; Tetrahymena group I intron in knt gene, E. coli kanamycin selection, DiMSum; sequences stand for … in CUCUCU…GGAGGGAAAAGUUAUCAGGCAUGCACCUGGUAGCUAGUCUUUAAACCAAUAGAUUGCAUCGGUUUAAAAGGCAAGACCGUCAAAUUGCGGGAAAGGGGUCAACAGCCGUUCAGUACCAAGUCUCAGGGGAAACUUUGAGAUGGCCUUGCAAAGGGUAUGGUAAUAAGCUGACGGACAUGGUCCUAACCACGCAGCCAAGUCCUAAGUCAACAGAUCUUCUGUUGAUAUGGAUGCAGUUCACAGACUAAAUGUCGGUCGGGGAAGAUGUAUUCUUCUCAUAAGAUAUAGUCGGACCUCUCCUUAAUGGGAGCUAGCGGAUGAAGUGAUGCAACACUGGAGCCGCUGGGAACUAAUUUGUAUGCGAAAGUAUAUUGAUUAGUUUUGGAGUACUCGUGGUCG
How it was run: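 Library with all eight P1ex-region intron nucleotides randomised, intron inside the knt kanamycin-resistance gene on pET-22b(+), in E. coli BL21(DE3). Cells grew overnight at 37°C or 30°C on LB agar with or without 25 μg/mL kanamycin (plus 100 μg/mL carbenicillin, 50 μM IPTG, 0.2% rhamnose), in six replicate transformations. Pooled colonies were amplicon-sequenced on Illumina HiSeq 2500. DiMSum fitness is the error-weighted combination of wild-type-normalised replicate fold changes, kanamycin versus none.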

| Sequence | self-splicing fitness (ln) (30 °C) | self-splicing fitness (ln) (37 °C) |
| --- | --- | --- |
| AGCAAGCAAUAUUACGAAGU | -3.42 ± 0.27 | -1.58 ± 0.25 |
| AGUAAGCAAUAUUACGCAUC | -4.12 ± 0.29 | -1.48 ± 0.27 |
| GUUGAGCAAUAUUACGAUGG | -3.31 ± 0.47 | -2.7 ± 0.29 |
| GUUCAGCAAUAUUACGGCGC | -0.314 ± 0.094 | 0.633 ± 0.13 |
| CAUAAGCAAUAUUACGCUUG | -3.08 ± 0.29 | -3.01 ± 0.25 |
| GCAAAGCAAUAUUACGCUCG | -0.748 ± 0.17 | -0.86 ± 0.24 |
| UGAUAGCAAUAUUACGAGAG | -3.29 ± 0.43 | -1.65 ± 0.18 |
| ACCGAGCAAUAUUACGGCCU | -0.622 ± 0.086 | 0.418 ± 0.11 |
| ACUUAGCAAUAUUACGUGGA | -2.47 ± 0.13 | -2.7 ± 0.16 |
| GAUCAGCAAUAUUACGCUAA | -1.11 ± 0.12 | -0.316 ± 0.15 |
| CAGAAGCAAUAUUACGUGCC | -4.04 ± 0.28 | -2.74 ± 0.3 |
| UCGCAGCAAUAUUACGUGAU | -2.2 ± 0.25 | -3.26 ± 0.35 |
| CAGUAGCAAUAUUACGUCCA | -2.28 ± 0.21 | -1.83 ± 0.28 |
| UCCUAGCAAUAUUACGUUUU | -3.41 ± 0.21 | -2.69 ± 0.2 |
| UUCUAGCAAUAUUACGGUAU | – | -0.561 ± 0.24 |
| AAUUAGCAAUAUUACGAGAC | – | -2.39 ± 0.39 |
| CAUCAGCAAUAUUACGACUU | -1.85 ± 0.081 | -0.408 ± 0.081 |
| CUAGAGCAAUAUUACGUAGU | -2.72 ± 0.22 | -1.94 ± 0.33 |
| CCCUAGCAAUAUUACGACUA | -2.51 ± 0.29 | -2.21 ± 0.21 |

| Sequence | self-splicing fitness (ln) (30 °C) | self-splicing fitness (ln) (37 °C) |
| --- | --- | --- |
| CGAGAGCAAUAUUACGACAA | -1.65 ± 0.39 | – |
| AUGUAGCAAUAUUACGCCCG | -0.83 ± 0.22 | -0.891 ± 0.33 |
| UGAUAGCAAUAUUACGUUUA | -2.2 ± 0.12 | -0.742 ± 0.1 |
| CGGUAGCAAUAUUACGAUAU | -3.58 ± 0.31 | -1.33 ± 0.24 |
| CUUAAGCAAUAUUACGGCGU | -3.35 ± 0.2 | -1.89 ± 0.17 |
| CGUAAGCAAUAUUACGCUUC | – | -2.52 ± 0.45 |
| GUGGAGCAAUAUUACGGAAU | -3.23 ± 0.16 | -1.33 ± 0.17 |
| UGGCAGCAAUAUUACGUCAU | -4.47 ± 0.33 | -2.67 ± 0.26 |
| UGGUAGCAAUAUUACGUCCU | 0.31 ± 0.2 | 0.713 ± 0.3 |
| GGGUAGCAAUAUUACGCGAC | -2.34 ± 0.2 | -1.62 ± 0.23 |
| GGAAAGCAAUAUUACGCAAU | -2.27 ± 0.45 | -0.77 ± 0.32 |
| CCCGAGCAAUAUUACGGUGU | -3.28 ± 0.1 | -1.67 ± 0.094 |
| UCAAAGCAAUAUUACGACCU | -1.84 ± 0.19 | -0.48 ± 0.19 |
| GGGCAGCAAUAUUACGCCAU | -1.69 ± 0.12 | -1.21 ± 0.13 |
| CUAGAGCAAUAUUACGCAAG | -1.8 ± 0.096 | -0.42 ± 0.11 |
| UCUAAGCAAUAUUACGGUAA | -3.48 ± 0.36 | -1.33 ± 0.19 |
| GUUAAGCAAUAUUACGUGUG | -1.93 ± 0.093 | -1.21 ± 0.098 |
| ACCAAGCAAUAUUACGGCUA | -0.574 ± 0.065 | -0.0302 ± 0.07 |
| AUGAAGCAAUAUUACGCGUA | -0.537 ± 0.061 | -0.226 ± 0.07 |

— the supplement of paper PMC7877785
